# Source: the nanobody polyreactivity screen of Harvey et al. (2022)
# Assay: yeast display, Sf9 membrane polyspecificity reagent, FACS + sequencing; frameworks hold sequencing errors
# Outline: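 Using colony PCR, genes from sorted yeast display clones were amplified, then sequenced on MiSeq at 2 × 250 and filtered by CDR length. The clones had been stained with 10% biotinylated, detergent-solubilized Sf9 membrane reagent for 1 hour at 4 °C and sorted by FACS into low and high (top ~1%) gates on anti-HA and streptavidin fluorescence. Polyreactivity labels come from the gate of origin.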
row,Sequence,polyreactivity (PSR sort gate)
1,QVQLVESGGGLVQAGGSLRLSCAASGRIFVYNAMGWYRQAPGKERELVAAISRSGSSTYYADSVKGRFTISRDNAKNTVYLQMNSLKPEDTAVYYCNAVLSRWTQSGKYRYRYFGFEYWGQGTQVTVSS,high polyreactivity
2,QVQLVESGGGLVQAGGSLRLSCAASGIIFDSYVMGWYRQAPGKERELVAAISFRGGSTYYADSVKGRFTISRDNAKNTVYLQMNSLKPEDTAVYYCAAEGRGYTEYYWGQGTQVTVSS,high polyreactivity
3,QVQLVESGGGLVQAGGSLRLSCAASGFIFAKYVMGWYRQAPGKERELVAAISRSGGSTYYADSVKGRFTISRDNAKNTVYLQMNSLKPDDTAVYYFAADQTTTGGMDFWGQGTQVTVSS,high polyreactivity
4,QVQLVESGGGLVQAGGSLRLSCAASGSTFVQYAMGWYRQAPGKERELVAAITRSGGSTYYADSVKGRFTISRDNAKNTVYLQMNSLKPEDTAVYYCAARHYRSRDGYWGQGTQVTVSS,high polyreactivity
5,QVQLVESGGGLVQAGGSLRLSCAASGFTFPYYAMGWYRQAPGKERELVARISSGGSTNYADSVKGRFTISRDNAMNTVYLEMNSLKPEDTAVYYCNKGWYYRPRFYSSSDYWGQGTQVTVSS,high polyreactivity
6,QVQLVESGGGLVQAGGSLRLSCAASGYIFGQNARGLYRQAPGKERELGASMSDGGSTYYADSVKGRFTISRDNAKNTVYLQLNSLKPEDTAVYYCAAYYSYGSTSHTYTCFDYWGQGTQVTVSS,low polyreactivity
7,QVQLVESGGGLVQAGGSLRLSCAASGFNFPGNAIGWYTPAPGKERELVATISSGGSTKYADSVKGRFTISRDNAKNTVYLQMNSLKPEDTAVYYFAARVYLGVFDYYYWGQGTQVTVSS,low polyreactivity
8,QVQLVESGGGLVQAGGSLRLSCAASGITFGWNAMGWYRPAPGKERELVAAITEDGDSTYYADSVKGRFTISRDNAMNTVYLQMNSLKPEDTAGYYCAAEYYDVYTYVQYDSWGQGTQVTVSS,high polyreactivity
9,QVQLGESGGGLVPARGSLRLSRAASGSTFTTNAMGWYRQAPGKEREFVAAITSSGGSTYYADSVKGRFTISRDNAKNTVYLQMNSLNPEDTAVYYCIADGDPSQKLFGRSYDYWGQGTQVTVSS,low polyreactivity
10,QVQLVESGGGLVQAGGSLRLSCAASGFIFPRYAMGWYRQAPGKERELVAAISYTGGSTYYADSVKGRFTISRDNAKNTVSLQMNSLKPEDTAVYYCYAYFLSQYQRGYRDDYWGQGTQVTVSS,high polyreactivity
11,QVQLVESGGGLVQAGGSLRLSCAASGSIFQRYTMGWYRQAPGKERELVARISGRGGSTYYADSVKGRFTISRDNAKNTVYLQMKSLKPEDTAVYYCAADTGRYLDSNYWGQGTQVTVSS,high polyreactivity
12,QVQLVESGGGLVQAGGSLRLICAASGSTFPYYDMGWYRQAPGKETELVAAISWSGDSTYYADSVKGRFTISRDNAKNTVYLQMNSLKPEDTAVYYCAAYSDYWSYLSTDDYWGQGTQVTVSS,low polyreactivity
13,QVQLVESGGGLVQAGGSLRLSCAASGSTFWDYAMGWYRQSPGKERELVAGITYSGTSTYYADSVKARFTISRDHAKNTVYLQMNSLKPEDTAVYYCAAESQAVGWWTPGYDYWGQGTQVTVSS,low polyreactivity
14,QVQLVESGGGLVQAGGSLRLSCAASGYTFSHYAMGWYRQAPGKERELVAGITWSGGSTYYADSVKGRFTISRDNAKNTVYLQMNSLKPEDTSVYYCAAKYYWYYSYSGIPLFDYWGHGTQVTVSS,low polyreactivity
15,QVQLVESGGALHQAGGSLRLNCAASGRTFGANAMGWYRQAPGKERELVAAISSSDDSTYYADSVKGRFTISRDNAKKTVYLQMNSLKPEDTAVYYCAAEDVYRQLDYWGQGTQVTVSS,low polyreactivity
16,QVQLVESGGGLVQAGGSLRLSCAASGRIFGSYAMGWYRQAPGKERELVAGIRSVGSTYYADSVKGRFTISRDNAKNTVYFQMNSLKPEDTAVYYCAAEYFNQNTRQGYDSWGQGSQVTVSS,low polyreactivity
17,QVQLVESGGGLVQAGGSLRLSCAASGRTFNAYAMGWYRHAPGKERELVAAISSGGSTYYADSVKGRFTISRDNAKNTVYLLMNSLKPEDTAVYYCNKVYGWRQFDYWGQGTQVTVSS,high polyreactivity
18,QVQLVESGGGLVQAGGSLRLSCAASGSTFQYYAMGWYRQAPGKERELVDAISPSVDTTFYADSVKGRFTISRDNAKNTVYLQMNSLKPEDTAVYFCAKRYVDPLGSGTLGSWGQGTQVTVSS,low polyreactivity
19,QFQLVESGGGLVQAGGSLRLSCPASGRIFYYYSMGWYRQAPGKEREFVAAITGRGGSTYYADSVKGRFTISRDNAKYTVYLQMNSLKPEDTADYYCNAGQYFEYYGWYSRYGYWGQGTQVTVSS,low polyreactivity
20,QVQLVESGGGLVQAGGSLRLSCAASGSIFLYNTMGWYRQAPGKERELVAAITSGGNTNYADSVKGRFTISRDNAKNTVYLQMHSLKPEDTAVYYCNVDLKAWLPDGGSVDYWGQGTQVTVSS,low polyreactivity
21,QVQLEESGGGLVQAGGSLRLSCAASVSIFESYAKGWNRQAPGKEREFVAAISDSGADTYYADSVKGRFTISRDNAKNTVYLQMNCLKPEDTAVYYCATDDYFSSYGYFLDGYWGQGTQVTVSS,low polyreactivity
22,QVQLVESGGGLVQAGGSLRLSCAASGRTFRYNAMGWYRQAPGKERELVAAINWNGGSTYYADSVKGRFTISRDNAKNTVYLQMNSLKPEDTAVYYCNADFYHRYDWGQGTQVTVSS,high polyreactivity

row,Sequence,polyreactivity (PSR sort gate)
1,QVKLVESGGGLVQAGGSLRLSCAASGIIFEVYAMGWYRQAPGKERELVAAITLSSGGITYYADSVKGRFTISRDYAKNTVYLQMNSLKPEDTAVYYCAAQHDNFSGPFEYWGQGTQVTVSS,low polyreactivity
2,QVQLVESGGGLVQAGGSLRLSCAATGLIIPFSAMGWDREPPGKDRDLVAAISWSAGSTYYADSVKGRFTISRDNAKNSVYLHMNSLKPEDTAVYYCATDRNPADFYWGQGTQVTVSS,low polyreactivity
3,QVQLVESGGGLVQAGVSLRLSCAASGYIIIVYTMGWYRQAPGKERELVAAISSGGITDYADSVKGRFTISRDNAKNTVYLQMNSLKPEDTAVYYWGQGTQVTVSS,low polyreactivity
4,QVQLVESGGGLVQEGGSLRLSCAASGSIFFPYAMGWYRQAPGKEREFFADITWSGGSTYYADSVKGRFTISRDNAKNTVYLQMNSLKPEDTAVYYCNTDYYLLSVVWFSYTLYEYWGQGTQVTLSS,high polyreactivity
5,QVQLVESGGGLVQAGGSLRLSCAASGFTLRYYAMGWYRQAPGKERELVADISWSGGRTYYADSVKGRFTISRDNAKNTVYLQMNSLKPEDTAVYYCAAVRYYAHVYKSVGYDYWGQGTQVTVSS,high polyreactivity
6,QVQLLESGGGLVQAGGSLRLSCAASGSIFRGYAMGWYRKAPGKERELVAAINWSGSSTYYADSVKGRFTISRDNAKKTVYLQMNSLKPEDTAVYYCARVYYNRNLGGDYWGQGTQVTVSS,low polyreactivity
7,QVQLVESGGGLVQAGCSLRLSCAASGSTFRKYAMGWYRQAPGKEREFVAAITWSTGTTYYADSVKGRFTISRDNAKNTVYLQMNSLKPEDTAVYYFAADSQPPHELYESIEHESWGQGTQVTVSS,low polyreactivity
8,QVQLVESGRGLVQAGGSLRLSCAASGRTFDPYAMGWYRQAPGKERELVAAITSGDDTYYADSVKGRFTISRDYAKNTVYLQMNSLKPEHTAVYYCAADSFTPDYYYHDYWGQGTQVRVSS,low polyreactivity
9,QVQLVESGGGLVQAGGSLRLSCAASGRTFAWKAMGWYRQAPGKERELVAAMSSRGTSTYYADSVKGRFTISRDNAKKTVYLQMNSLKPEDTAVYYCAKYTNPASGEYGYWGQGTQVTVSS,high polyreactivity
10,QVQLVESGGGLVQAGGSLRLSCAASGRIFIIYAMGWYRQAPGKEREFVAAITSSGGSTYYADSVKGRFTISRDNAKNTVYLQMYSLKPEDTAVYYCNKVTRYYREYHRDSQYGYWGQGTQVTVSS,high polyreactivity
11,QVQLVESGGGLVQAGGSLRLSCAASGRTLKVYAMGWYRQAPGKERELVAAINNGGSTNYADSVKGRFTISRDNAKNTVYLQMNSLKPEDTAVYYCNAVYYARYRNYTYYYWGQGTQVTVSS,high polyreactivity
12,QVQLVESGGGLVQAGGSLRLSCAASGRTLQTYVMGWYRQPPGKERELVAAITRGGGSTYYADSVKGRFTISRDNAKNTVYLQMNSLKPEDTAVYYCAASALRFNSRFSHWYNYWGQGTQVTVSS,high polyreactivity
13,QVQLVESGGGLVQAGGSLRLSCAASGYTFRSNVMGWYRQAPGKERELVAAISRGTRTKYADSVKGRFTISRDNAKNTVYLQMNSLKPEDTAVYYCAADTGTGLDWGQGTQVTVSS,high polyreactivity
14,QVQLVESGGGLVQAGGSLRLSCAASGRTFYGYAMGWYIQAPGKERELVASISYSGGNTYYADSVKGRFTISRDNAKNTVYLQMNSLKPEDTAVYYCAAKARRPYSYHPYDYWGLGTQVTVSS,high polyreactivity
15,QVQLVESGGCLVQAGGSLRLSCAASGIIFQGYVMGWYRQAPGKEREFVAAISRSGGTTFYADSVKGRFTISRDNAKNTVYLQMNSLKPVDTAVYSCNRARLGRPGYDYWGQGTQVTVTS,high polyreactivity
16,QVQLVESGGGLVQAGGSLRLSCAASGFTFPVYAMGWYRPAPGIEREFVAASTKSGGGTYYADSVKGRCTLSRDNAKKTVYGQMNSLKPEETAVYYCAKASRRFLTLGSDYWGQGTQVTVSS,high polyreactivity
17,QVQLVESGGGLVQAGGSLRLSCAASGFTFSLYAMGWYRQAPGKEWEVVAAISSRGGTTYYADSVKGRFTISRDNAKNTVYLQMNILKAEDTAVYYCAARYVYTRSAFDYWGQGTQVTVSS,high polyreactivity
18,QVQLVESGGGLVQAGGSLRLSCAASGFIFSYYAMGWYRQAPGKERELVAAITWDGGSTYYADSVKGRFTISRDYANNTVYLLLNSLKPEDTAVYYCNAYYYYRRPLEGGYWGQGNQVTVSS,low polyreactivity
19,QVHLVESGGGLDQAGGSLRLRCAATGRTFKYYAMGWYRQAPGKERELVAAISGSGGSTYYADSVKGRFTISRDNAKNTVYLQMNSLKPEDTAVYYCAAAGKETSRYAYDSWGQGTQVTVSS,high polyreactivity
20,QVQLVESGGGLVQAGGSLRLSCAASGRIFRRYAMGWYRQAPGKEREFVAAISYGGGSTYYADSVKGRFTISRDNAKYTVSLQMNSLTPEDTAVYYCNADVPKSLLLYYPWGYGYWGQGTQVTVSS,low polyreactivity
21,QVQLVESGGGLVQAGGSLRLSCAASGSIFGYSAMGWYRQAPGKERELVAAIDSGGSTYYADSVKGRFTISRDNAKNTVYLQMNSLKPQDTAVYYCAAGVSSFSPYDSWGQGTQVTVSS,low polyreactivity
